Consider 38 variants from the RNAGym collection of RNA variant scans (doi:10.7554/elife.80360).

B1: Hairpin Ribozyme (parent)
chain: GUCCUCUUUCACGUGCGCGUGAAAGAGAGAAGUGAACCAGAGAAACACACGUUGUGGUAUAUUACCUGGUA

Variants of B1 are the subject of the series. As to the kind of experiment: self-cleavage, relative activity (ratio to wild type); higher = more cleavage; co-transcriptional.
GUCCUCUUUCACGUGCGCGUGAAAGAGAUAAGUGAACCAGAGAAACACACGUUCUGGUAUAUUACCUGGUA [G29U G54C]: the self-cleavage came out at 0.12.

Regarding GUCCUCUUCCACGUGCGCGUGAAAGAGAGAAGUGAACCAGAGAAACACACGUUGUGGUAUAUUACCUGGUC [U9C A71C], the self-cleavage is 1.24. For GUCCUCUUUCACGUGCGCGUGAUAGAGAGAAGUGAACCAGAGAAACACACGUUGUGGAAUAUUACCUGGUA [A23U U58A] the value was 0.539. As for GUCGUCUUUCACGUGCGCGUGAAAGAGAGAAGUGAACCAGAGAAACACACGUUGUGGAAUAUUACCUGGUA [C4G U58A], the self-cleavage amounted to 0.108.

For GUCCUCUUUCACGUGCGCGUGAAAGAGAGAAGUGAACCAGAGAAACAAACGUUGUGGUAUAUUAACUGGUA [C48A C65A], the self-cleavage stood at 0.131.

As to GUCCUCUUUCACGUGCGCGUGAAAGAGAGAAGUGAACCAGAGAAACUCACGUUGUGGUAUAUUACCUAGUA [A47U G68A], the self-cleavage is 0.148.

GUCCUCUUUCACGUGCGCAUGAAAGAGAGAAGUGAACCAGAGAAACACACGUUGUGGUAGAUUACCUGGUA [G19A U60G]: the self-cleavage is 0.448.

Turning to GUCCUCUUUCACGUGCGCGUGAAAGAGUGAAGCGAACCAGAGAAACACACGUUGUGGUAUAUUACCUGGUA [A28U U33C], the self-cleavage stood at 0.079. On to GUCCUCUUUCACGUGCGCGUGAAAGAGAGAAGUGAGCCAGAGAAACACAUGUUGUGGUAUAUUACCUGGUA [A36G C50U], for which the self-cleavage worked out at 0.407. Regarding GUCCUCUUUCACGUGCGCGGGAAAGAGAGAGGUGAACCAGAGAAACACACGUUGUGGUAUAUUACCUGGUA [U20G A31G], the self-cleavage turned out to be 0.581. Take GUCCUCUUUCACGUGCCCGUGAAAGAGAGAAGUGAACCCGAGAAACACACGUUGUGGUAUAUUACCUGGUA [G17C A39C]: the self-cleavage was 0.528.

With GUCCACAUUCACGUGCGCGUGAAAGAGAGAAGUGAACCAGAGAAACACACGUUGUGGUAUAUUACCUGGUA [U5A U7A], the self-cleavage was 0.105. Regarding GUCCUCUUUCACGUGCGCGUGAAAGAGAGAAGUGAACCAGAGAAACAGACGUUGUGGUAUAUUAACUGGUA [C48G C65A], the self-cleavage amounted to 0.22. GUCCUCUUUCACGUGCGCGUGAAAGAGAGAAGUGAACCAGAGAACCACACGUUGUGGUAUAUUACCUGGAA [A45C U70A]: the self-cleavage was found to be 0.222. Consider GUCCUCUUUCACGUGCGCGUGAAAGAGAGAAGUGAAACAGAGAAACACACGUUGUGGUAUAUUACCUGGUC [C37A A71C], for which the self-cleavage turned out to be 0.526. GUCCUCUUUGACGUGCGCGUGAAAGAGAGAAGAGAACCAGAGAAACACACGUUGUGGUAUAUUACCUGGUA [C10G U33A]: the self-cleavage was 0.138. For GUCCUCUUUCACGUGCGCGUGAAAGAGAGAAGUGAACCAGACAAACACACGUUGUGGUAUAUUACCUGGAA [G42C U70A], the self-cleavage was determined as 0.222. Consider GUCCUCUUUCACGUGCGCGUGAAAGAGAGAAGUGAACCAGAGAAACACACGUUGAGGUAUAUUACAUGGUA [U55A C66A], for which the self-cleavage was 0.188. On to GUCCUCUUUCACGUGCGCGUGAAAGAGAUAAGUGAACCAAAGAAACACACGUUGUGGUAUAUUACCUGGUA [G29U G40A], for which the self-cleavage amounted to 0.121. As to GUCCACUUUGACGUGCGCGUGAAAGAGAGAAGUGAACCAGAGAAACACACGUUGUGGUAUAUUACCUGGUA [U5A C10G], the self-cleavage is 0.129. As for GUCCUGUUUCACGUGCGCGUGAAAGAGAGAAGUGAACCAGAGAAACACACGUUGUGAUAUAUUACCUGGUA [C6G G57A], the self-cleavage amounted to 0.11. To GUCCUCUUUCCCGUGCGCGUGAAAGAGAGAAGUGAACCAGAGAAACACACGUUGUGGUAUAUGACCUGGUA [A11C U63G] belongs 0.134; to GUCCUCUUUCACGUGCGCGUGAAAGAGAGAAGUGAACCAGAUAAACAUACGUUGUGGUAUAUUACCUGGUA [G42U C48U], 0.132; to GUCCUCUUUCACGUGCGCGUGAAAGAUAGAAGUGAUCCAGAGAAACACACGUUGUGGUAUAUUACCUGGUA [G27U A36U], 0.0647. On to GUCCUCUUUCACGUGCGCGUGAAAGAGAGAAGUGAGCCAGAGAAACACACGUUGUGGUAUAUUACCUGGUC [A36G A71C], for which the self-cleavage turned out to be 1.23. For GUCCUCUUUCACGUGCGCGUGAAAGAGAGAAGUGAACCAGAGAAACACACGUUGUGGUAUAGUAACUGGUA [U62G C65A], the self-cleavage turned out to be 0.157. To GUCCUCUUUCACGUGCGCGAUAAAGAGAGAAGUGAACCAGAGAAACACACGUUGUGGUAUAUUACCUGGUA [U20A G21U] belongs 0.642. For GUCCUCUUUCACGUGCGCGUGAAAGAGAGAAGUGAACCAGAGAAACACACGUUGUGGUGUAUUACCUGGCA [A59G U70C], the self-cleavage worked out at 0.192. To GUCUUCUUUCACGUGCGCGUGAAAGAGAGAAGUGAGCCAGAGAAACACACGUUGUGGUAUAUUACCUGGUA [C4U A36G] belongs 0.465. Consider GUCCUCUUUCACGUGCGCGUGACAGAGAGAAGUGAACCAGAGAAACACACGUUGUGGUAUAUUAUCUGGUA [A23C C65U], for which the self-cleavage amounted to 0.282.

GUCCUCUUUCACGUGCGCGUGAAAGAGAGAAGUGAACCAGAGAAACACAAGUUGUGGUAUUUUACCUGGUA [C50A A61U]: the self-cleavage amounted to 0.281.

For GUCCUCUUUUACGUGCGCGUGAAAGAGAGAAGUGAACCAGAGUAACACACGUUGUGGUAUAUUACCUGGUA [C10U A43U], the self-cleavage is 0.0631. As to GUCCUCUUUCACGUGCGCUUGAAAGAGUGAAGUGAACCAGAGAAACACACGUUGUGGUAUAUUACCUGGUA [G19U A28U], the self-cleavage was 0.628. Regarding GUCCUCGUUCACGUGCGCGUAAAAGAGAGAAGUGAACCAGAGAAACACACGUUGUGGUAUAUUACCUGGUA [U7G G21A], the self-cleavage turned out to be 0.499. As to GUCCUCUUACACAUGCGCGUGAAAGAGAGAAGUGAACCAGAGAAACACACGUUGUGGUAUAUUACCUGGUA [U9A G13A], the self-cleavage came to 0.471.

In the case of GUCCUCUUUCACGUGCGCGUGAAAGAGAGAAGUGAACCAGAGAAACACACGUUUUGGUAUAUAACCUGGUA [G54U U63A], the self-cleavage came to 0.267.

Regarding GUCCUCUUUCACGUGCGCGUGAAAGAGAGAAUUGAACCAGAGAAACACACGUUGUGGUAUAGUACCUGGUA [G32U U62G], the self-cleavage came to 0.182.

Regarding GUCCUCUUUCACGUGCGCGUGAAAGAGAGAACUGAACCAGAGGAACACACGUUGUGGUAUAUUACCUGGUA [G32C A43G], the self-cleavage stood at 0.0421.
